Where only a bound is given, the exact number is not on record here.

The test has as its target PA28γ (endogenous, U2OS cells) (human (endogenous in U2OS)) (UniProt P61289). Nature of the test: proximity ligation.
UniProt P61289, sequence (P61289 whole entry): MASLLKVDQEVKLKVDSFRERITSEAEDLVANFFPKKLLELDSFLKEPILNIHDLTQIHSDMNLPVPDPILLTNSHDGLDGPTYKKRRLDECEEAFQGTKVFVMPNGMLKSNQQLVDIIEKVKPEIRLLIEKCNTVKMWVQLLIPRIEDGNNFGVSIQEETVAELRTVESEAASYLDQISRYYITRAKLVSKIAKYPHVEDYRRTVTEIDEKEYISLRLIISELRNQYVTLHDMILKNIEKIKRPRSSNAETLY

As for “20S proteasome (endogenous, U2OS cells), detected by its α4 subunit (from UniProt O14818 1-248) (complex)”, the PLA dots per nucleus (PLA dots per nucleus) is under 60.

The record behind these values is paper doi:10.1101/716332.
